According to PMC13199644, “Optimized Quantitative Bacterial Two-Hybrid (qB2H) for Protein–Protein Interaction Assessment” (Computational and Structural Biotechnology Journal, 2026):

System: Spo22p
Assay: qB2H v3 fluorescence, Spo22p vs ECM11
Assay type: cell-based, Saccharomyces cerevisiae
Conditions: Acella, qB2H v3, cI-Spo22p 786-886, IPTG(200µM) + ATC (200ng/mL)
Procedure: Precultures of untransformed (for intrinsic fluorescence evaluation) and transformed SB39 cells were diluted (3 μl into 300 μl of fresh medium) in 2-ml microtubes and grown in ThermoMixer C (Eppendorf; 37 °C at 900 rpm) for 2 h. Cultures with an OD600 of approximately 0.5 were then mixed with 100 μl of the same medium containing 4× inducer concentration. […] The induced cultures were grown overnight at 18 °C, diluted (1 μl) in freshly filtered (0.22 μm) phosphate-buffered saline buffer (1 ml per OD unit), and analyzed using guava easyCyte HT (488-nm blue laser). The gating for event analysis was set to minimize background noise (fewer than 100 gated events per 10 μl of sterile phosphate-buffered saline). Ten thousand events were collected per culture, and the MFI was recorded. To allow comparison across independent experiments, SB39 cells cotransformed with VN519 (pBRα-rpoA-ip3_mut3A) and VN550 (pAC-cI_E34P-ASF1A_Term_f1-pOL2-62_L-eGFP-KanR) or VN517 (pBRα-rpoA-ip3) and VN550 were included as internal controls. […]
MFI(x) represents the MFI of a given condition or culture. MFI(low) corresponds to the fluorescence produced by SB39 cells cotransformed with VN519 and VN550, indicating no detectable interaction (Kd > 100,000 nM). […]
Interactions involving distinct protein domains and folding variants were assessed using qB2H systems v1, v2, and v3. […]

B1: ECM11: Q04110 1-302, Saccharomyces cerevisiae (protein, UniProt Q04110 1-302, looked up)
Protein ECM11: MTVIKTEPTTEVTLYSPPSKESLSKDDAHRKKQNNKPPSSINSRSGPNKHKLAAKAPEKKINNTDKQDLSAFLLNPSLIVKPSESKKKENIVAYNDTPGIKTEHTAFQPLTPISKKRALKEKAASEKCDSFDLSRDEKPYIQKKSKTLSSVTEINSSEYKLSLNGENTSSPAKEKSQEPIENPGSYQKTRNYLFEKPDPLDTCLQDYSSMLPSNVAEEDQEYFISVADSTLEEWTNKGQEIIDQQFQLYQEIIKKRIELSYKFKGIISVINDRADALEEQGQQLEGKIKKVKTLANEILNII
- Norm. MFI: 7.70%
